From patent US20230340111A1 (published 2023)
Read-outs that look alike come from different tables or passages of the source.

Experiments:
[1] = target: T1, human FOLR1 expressed on SKOV-3 ovarian carcinoma cells (human, UniProt P15328 25-234); experiment: saturation binding of 131I-labelled untagged VHH on SKOV-3 cells
T1 construct: Naturally expressed receptor on SKOV-3 cells; also called human FOLR1pos SKOV-3 cancer cells; human FOLR1-expressing cell line SKOV-3

[2] = target: T1, human FOLR1 expressed on SKOV-3 ovarian …; experiment: as above; remark: listed apart in the source
Experimental: In a first part, their in vitro behaviour was assessed by means of investigating their cellular binding and retention over time. The binding potential of the resulting radioconjugates was assessed to confirm that this was not affected by the introduction of ¹³¹I-SGMIB into the amino acid sequence of the different VHHs. To this, human FOLR1^pos SKOV-3 cancer cells were incubated with serial dilutions with concentrations ranging from 0 to 300 nM of the different ¹³¹I-labelled, His₆ tagged VHHs. A 100-fold excess of the corresponding unlabeled VHH was added in parallel to saturate the human FOLR1 receptors expressed on cancer cells, to assess non-specific binding.
A1 and A2 parental untagged VHH’s and derivatives were radiolabeled with theranostic isotope ¹³¹I, as described in example 3, and subjected to saturation binding studies as described in example 6.

[3] = target: T1, human FOLR1 expressed on SKOV-3 ovarian …; experiment: cellular retention on SKOV-3 cells: 10 nM 131I-VHH 1 h at 4 C, then up to 24 h at 37 C; membrane-bound plus internalized fraction
Summary of the method: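 His₆-tagged and untagged ¹³¹I-VHHs were tested, with a 100-fold excess of unlabeled VHH for non-specific binding. Unbound and dissociated fractions were collected. Membrane-bound label was stripped with 0.05 M glycine pH 2.8, and internalized label was recovered by 1 M NaOH solubilization.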

T1 sequence (P15328 25-234 limits assumed): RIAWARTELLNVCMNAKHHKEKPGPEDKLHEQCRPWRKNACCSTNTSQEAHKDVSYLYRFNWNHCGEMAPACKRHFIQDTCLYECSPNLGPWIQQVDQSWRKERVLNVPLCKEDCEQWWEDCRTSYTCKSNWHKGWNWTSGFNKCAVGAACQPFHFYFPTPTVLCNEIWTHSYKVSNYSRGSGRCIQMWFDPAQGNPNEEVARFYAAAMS

B1: 131I-labeled untagged VHH A1 (VHH)
VHH: DVQLVESGGGLVQPGGSLRLSCAASESIFSRNHMSWYRQAPGKQRELAAIITSDGNTNYPDSVKGRFTISRDNAKNTVYLQMNSLKPEDTAVYYCNTFGRSVAGFYDYWGQGTQVTVSS
modifications: [131I]SGMIB conjugated to lysine side-chain amine groups
[1]
  EC50: 1.2 nM
[2]
  EC50: 1.1 nM
[3]
  cell-associated fraction of initial bound activity after 24 h: ~40%
